Target: T1, RGS2-SmBiT (UniProt P41220 1-211)
T1 construct: Regulator of G protein signaling 2 (RGS2); cloned in-house into pBiT2.3-C[CMV/SmBiT/Blast]; The linker between RGS2 and SmBiT is not described; In the BiBiT construct RGS2-SmBiT and LgBiT-FBXO44 are expressed from one plasmid with a bidirectional CMV promoter; also called C-terminally tagged RGS2; source: HEK-293T, transiently transfected, in live cells; not shown: SmBiT, C-terminal, kept
T1 sequence (looked up): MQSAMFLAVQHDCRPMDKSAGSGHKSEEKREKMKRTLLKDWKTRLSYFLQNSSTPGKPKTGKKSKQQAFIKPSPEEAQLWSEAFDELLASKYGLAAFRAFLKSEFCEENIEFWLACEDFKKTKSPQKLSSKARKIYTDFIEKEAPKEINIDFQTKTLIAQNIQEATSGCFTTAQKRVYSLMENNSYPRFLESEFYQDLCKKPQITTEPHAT
Test: split reporter (BiFC, NanoBiT); NanoBiT luminescence in live, transiently transfected HEK-293T cells; every combination of RGS2 and FBXO44 NanoBiT constructs; 15,000 cells/well, 2 hours incubation
Conditions: partners not purified

B1: LgBiT-FBXO44 (natural protein, UniProt Q9H4M3 1-255, looked up)
chain: MAVGNINELPENILLELFTHVPARQLLLNCRLVCSLWRDLIDLVTLWKRKCLREGFITEDWDQPVADWKIFYFLRSLHRNLLHNPCAEEGFEFWSLDVNGGDEWKVEDLSRDQRKEFPNDQVKKYFVTSYYTCLKSQVVDLKAEGYWEELMDTTRPDIEVKDWFAARPDCGSKYQLCVQLLSSAHAPLGTFQPDPATIQQKSDAKWREVSHTFSNYPPGVRYIWFQHGGVDTHYWAGWYGPRVTNSSITIGPPLP
notes: F-box Only Protein 44 (FBXO44); cloned in-house into pBiT1.3-N[CMV/LgBiT/Hygro]; The linker between LgBiT and FBXO44 is not described; also called N-terminally tagged FBXO44; source: HEK-293T, transiently transfected, in live cells; not shown: LgBiT, N-terminal, kept
With B1 the “fold luminescence signal against the opposite tagging (RGS2-LgBiT with SmBiT-FBXO44)” value was 3.5 fold.
